B1: zebrafish GNPTAB minimal construct (catalytic and EF-hand domains) (domain or fragment)
chain: EVVVEWSRDQYHVLFDSYRDNVAGKSFQTRLCLPMPIDVVYTWVNGTDPKLIKEVTELKRSKRDPLIPECQGKQTPEKDKCYRDDNTASRFEDNEELRYSLRSIEKHAPWVRHIFIVTNGQIPSWLNLDNPRVSVVTHQDIFQNQTHLPTFSSPAIETHIHRIPGLSQKFIYLNDDVMFGKDVWPDDFYSHSKGQKVYLTWPVPNDTFADSLRYVNRLLNAQFGFTSRKVPAHMPHMIDRLIMQELQDTFPQEFDKTSSHRVRHSEDMQFAFSYFYFLMSAVQQLNISEVFDEIDTDHSGVLSDREIRTLATRIHELPLSLQDLTSLEQMLINCSKSLPSNLTHLHAVSPTQEAYYDPSMPPVTKGLVIHCKPITERIHKAFKDQNKYKFEIMGEEEIAFKMIRTNVSHVVGQLDDIRKNPRKFICLNDNIDHIHKDAGTVKAVLRDFYESMFPLPSQFELPREYRNRFLHMTELQEWRIYRDKL
modifications: N-linked glycans (up to five visible on each chain)

Assays:
[1] = target: clawed frog GNPTG (gamma subunit of GNPT) (clawed frog (Xenopus laevis)); experiment: crystal structure
[2] = target: the molecule itself; experiment: crystal structure

| Molecule | stoichiometry N [1] | stoichiometry N [2] |
| --- | --- | --- |
| clawed frog GNPTG (gamma subunit of GNPT) (natural protein) | 2 | – |
| B1 | – | 2 |

Reference: paper PMC9388126 (Proceedings of the National Academy of Sciences of the …, 2022)
